The source of these data is publication PMC6499816, “Molecular determinants regulating selective binding of autophagy adapters and receptors to ATG8 proteins” (Nature Communications, 2019).

In one assay the target is PCM1 WT LIR peptide. Nature of the assay: BLI; biotinylated LIR peptide immobilised on streptavidin biosensors (Octet Red 96), ATG8 protein in solution; 25 mM Tris pH 7.5, 150 mM NaCl, 0.5 mM TCEP, 0.1% Tween-20, 1 mg/ml BSA, 25 °C; Kd from response against concentration, Y=Rmax*X/(Kd+X).
A further assay deals with GFP-GABARAP F60L (human) (UniProt O95166). Nature of the assay: co-IP; GFP-TRAP beads, lysates of HEK293A cells expressing GFP-GABARAP or GFP-LC3B constructs, TNTE buffer, 2 h at 4 °C; immunoblot of endogenous proteins, quantified. Background: Immunoblotting shows a protein as a band on a membrane.
In the next assay the target is PCM1 K1957I LIR peptide. Nature of the assay: BLI; biotinylated LIR peptide immobilised on streptavidin biosensors (Octet Red 96), ATG8 protein in solution; 25 mM Tris pH 7.5, 150 mM NaCl, 0.5 mM TCEP, 0.1% Tween-20, 1 mg/ml BSA, 25 °C; Kd from response against concentration, Y=Rmax*X/(Kd+X).
Assay [1] has as its target -L1 (recombinant, BLI) (human) (UniProt Q9H0R8). Nature of the assay: BLI. A general note: Biolayer interferometry detects binding as a change in optical thickness at a sensor tip.
The next assay addresses PCM1 V1956D LIR peptide. Briefly: BLI; biotinylated LIR peptide immobilised on streptavidin biosensors (Octet Red 96), ATG8 protein in solution; 25 mM Tris pH 7.5, 150 mM NaCl, 0.5 mM TCEP, 0.1% Tween-20, 1 mg/ml BSA, 25 °C; Kd from response against concentration, Y=Rmax*X/(Kd+X).
A further assay addresses LC3B (Homo sapiens) (UniProt Q9GZQ8). Nature of the assay: ITC. The settings on record: cited from earlier work.
The target in assay [2] is PCM1 LIR peptide (biotinylated, BLI). Briefly: BLI; biotinylated LIR peptide (50 μg/ml) immobilised on streptavidin biosensor, ATG8 in solution; Octet Red 96; 25 mM Tris pH 7.5, 150 mM NaCl, 0.5 mM TCEP, 0.1% Tween-20, 1 mg/ml BSA; 25 °C; Kd from response against concentration.
Assay [3] addresses ULK1 LIR peptide (biotinylated, BLI) (human). The assay is described as above.
The next assay addresses FIP200 T704I LIR peptide. Briefly: BLI; biotinylated LIR peptide immobilised on streptavidin biosensors (Octet Red 96), ATG8 protein in solution; 25 mM Tris pH 7.5, 150 mM NaCl, 0.5 mM TCEP, 0.1% Tween-20, 1 mg/ml BSA, 25 °C; Kd from response against concentration, Y=Rmax*X/(Kd+X).

GABARAP-L1 (recombinant, BLI), sequence (Q9H0R8 whole entry): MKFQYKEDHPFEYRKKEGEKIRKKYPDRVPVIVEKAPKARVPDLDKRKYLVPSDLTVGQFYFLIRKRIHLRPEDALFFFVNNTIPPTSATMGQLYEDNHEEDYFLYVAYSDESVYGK
-L1 (recombinant, BLI) (human), sequence (Q9H0R8 whole entry): as above
PCM1 LIR peptide mutated at P1962 (X7) (BLI), sequence (Q15154 whole entry, looked up, change not shown, tested part not stated): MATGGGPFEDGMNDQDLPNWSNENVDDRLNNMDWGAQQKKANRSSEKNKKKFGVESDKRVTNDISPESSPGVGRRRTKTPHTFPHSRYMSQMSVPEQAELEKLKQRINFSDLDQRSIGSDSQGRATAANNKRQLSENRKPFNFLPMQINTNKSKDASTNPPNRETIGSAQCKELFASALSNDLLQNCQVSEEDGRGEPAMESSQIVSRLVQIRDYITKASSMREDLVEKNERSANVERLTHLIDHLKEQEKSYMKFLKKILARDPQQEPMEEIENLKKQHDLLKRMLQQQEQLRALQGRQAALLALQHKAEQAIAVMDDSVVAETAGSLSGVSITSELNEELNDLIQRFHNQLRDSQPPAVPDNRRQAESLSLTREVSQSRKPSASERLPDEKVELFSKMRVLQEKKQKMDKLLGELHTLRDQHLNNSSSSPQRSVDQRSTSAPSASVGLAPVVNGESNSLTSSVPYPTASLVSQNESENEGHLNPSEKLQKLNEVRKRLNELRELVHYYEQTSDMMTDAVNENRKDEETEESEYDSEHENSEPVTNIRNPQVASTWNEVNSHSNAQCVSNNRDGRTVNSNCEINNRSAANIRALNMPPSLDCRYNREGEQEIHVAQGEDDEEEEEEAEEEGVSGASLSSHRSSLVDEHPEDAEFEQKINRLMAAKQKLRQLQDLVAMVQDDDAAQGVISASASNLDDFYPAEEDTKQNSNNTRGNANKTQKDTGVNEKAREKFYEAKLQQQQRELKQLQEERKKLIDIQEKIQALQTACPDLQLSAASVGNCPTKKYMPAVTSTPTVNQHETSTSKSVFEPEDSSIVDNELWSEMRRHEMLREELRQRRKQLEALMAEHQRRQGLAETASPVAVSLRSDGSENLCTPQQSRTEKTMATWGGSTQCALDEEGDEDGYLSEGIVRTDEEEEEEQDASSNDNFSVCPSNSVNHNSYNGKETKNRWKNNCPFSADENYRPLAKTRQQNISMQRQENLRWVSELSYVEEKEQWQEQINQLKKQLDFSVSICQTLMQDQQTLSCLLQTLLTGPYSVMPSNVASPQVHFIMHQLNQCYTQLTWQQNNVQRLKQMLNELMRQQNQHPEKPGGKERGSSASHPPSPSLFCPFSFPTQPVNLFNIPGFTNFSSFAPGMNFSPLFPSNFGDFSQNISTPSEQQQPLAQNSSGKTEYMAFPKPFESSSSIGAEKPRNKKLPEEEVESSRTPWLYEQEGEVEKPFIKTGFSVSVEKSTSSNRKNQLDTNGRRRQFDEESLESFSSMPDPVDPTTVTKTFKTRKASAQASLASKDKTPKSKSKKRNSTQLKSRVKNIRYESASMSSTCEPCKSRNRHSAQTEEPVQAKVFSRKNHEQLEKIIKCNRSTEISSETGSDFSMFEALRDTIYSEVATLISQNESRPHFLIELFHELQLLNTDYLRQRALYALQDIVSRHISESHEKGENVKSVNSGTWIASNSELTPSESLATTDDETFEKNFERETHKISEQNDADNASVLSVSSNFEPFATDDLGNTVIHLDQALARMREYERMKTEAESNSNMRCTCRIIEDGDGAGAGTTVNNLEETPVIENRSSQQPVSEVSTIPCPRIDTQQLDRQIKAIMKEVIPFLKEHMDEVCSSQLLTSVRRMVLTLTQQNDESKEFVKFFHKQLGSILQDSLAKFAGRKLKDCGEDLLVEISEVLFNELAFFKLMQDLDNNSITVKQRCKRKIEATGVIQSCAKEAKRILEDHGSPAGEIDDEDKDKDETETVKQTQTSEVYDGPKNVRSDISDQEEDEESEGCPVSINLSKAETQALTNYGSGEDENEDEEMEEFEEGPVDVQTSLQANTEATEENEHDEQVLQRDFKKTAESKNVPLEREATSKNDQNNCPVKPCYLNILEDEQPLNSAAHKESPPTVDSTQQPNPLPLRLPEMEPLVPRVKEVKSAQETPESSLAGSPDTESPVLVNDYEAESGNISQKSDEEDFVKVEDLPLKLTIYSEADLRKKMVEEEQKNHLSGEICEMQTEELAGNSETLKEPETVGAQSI

As usually defined, the Kd is a measure of binding affinity in units of concentration. In the assay with PCM1 WT LIR peptide, “GABARAP K24Q/Y25H/R28K (from UniProt O95166 1-117) (natural protein)” registered a Kd of 66 µM.

For “PCM1 (pericentriolar material 1), Q15154-5 1-2016”, in the assay with GFP-GABARAP F60L (human), the percent reduction of interaction against WT GABARAP worked out at 90%.

“LC3A (from UniProt Q9H492 1-121) (natural protein)” displayed a Kd with PCM1 K1957I LIR peptide of 3930 nM.

Regarding “PCM1 LIR peptide mutated at P1962 (X7) (BLI) (from UniProt Q15154)”, the Kd in assay [1] came to 880 nM.

Turning to “GABARAP Y25H (from UniProt O95166 1-117) (natural protein)”, in the assay with PCM1 WT LIR peptide, the Kd came out at 11.5 µM.

“GABARAP K24Q (from UniProt O95166 1-117) (natural protein)”: the Kd with PCM1 WT LIR peptide was determined as 16.6 µM.

In the case of “GABARAP (from UniProt O95166 1-117) (natural protein)”, the dissociation constant Kd in the assay with PCM1 V1956D LIR peptide amounted to 7.72 µM.

Regarding p62 LIR (from UniProt Q13501), the dissociation constant Kd in the assay with LC3B (Homo sapiens) was 3.2 µM.

For the substance “GABARAP-L1 (recombinant, BLI) (from UniProt Q9H0R8 1-117) (natural protein)”, the values for the dissociation constant (Kd) in assay [2] and in assay [3] were 1600 nM and 48 nM, respectively.

As to “LC3C (from UniProt Q9BXW4 1-126) (natural protein)”, the dissociation constant Kd with PCM1 K1957I LIR peptide came out at 384 nM; in the assay with FIP200 T704I LIR peptide, 2000 nM.

In the assay with PCM1 WT LIR peptide, “GABARAP K24Q/Y25H/Q59E/F60L (from UniProt O95166 1-117) (natural protein)” showed an equilibrium dissociation constant (Kd) of 250 µM.

In the case of “GABARAP (recombinant, BLI) (from UniProt O95166 1-117) (natural protein)”, the values for the Kd in assay [2] and in [3] were 2000 nM and 50 nM, respectively.
